This data set concerns the molecule itself. Kind of data set: negative-stain transmission electron microscopy.

The source of these data is publication doi:10.1101/188995 (bioRxiv, 2018).

B1: recombinant B. subtilis TasA(28-261), fibre-forming (natural protein, B. subtilis NCIB3610, UniProt P54507 28-261, looked up)
chain: AFNDIKSKDATFASGTLDLSAKENSASVNLSNLKPGDKLTKDFQFENNGSLAIKEVLMALNYGDFKANGGSNTSPEDFLSQFEVTLLTVGKEGGNGYPKNIILDDANLKDLYLMSAKNDAAAAEKIKKQIDPKFLNASGKVNVATIDGKTAPEYDGVPKTPTDFDQVQMEIQFKDDKTKDEKGLMVQNKYQGNSIKLQFSFEATQWNGLTIKKDHTDKDGYVKENEKAHSEDKN
Turning to B1, the binding result was “binds”.
